Measurements published in patent US20200368279.

Columns and labels:
Test in all cases: cell_activity
SBS75606 ZFN = conditions: pair with SBS75609, K562, 15 ug/mL mRNA; 70.1 at 3.75 ug/mL
SBS75714 ZFN = conditions: pair with SBS75715, K562, 15 ug/mL mRNA; 84.0 at 3.75 ug/mL
SBS75895 ZFN = conditions: pair with SBS75893, K562, 15 ug/mL mRNA; 76.6 at 3.75 ug/mL
SBS75609 ZFN = conditions: pair with SBS75606, K562, 15 ug/mL mRNA; 70.1 at 3.75 ug/mL
SBS75592 ZFN = conditions: pair with SBS75591, K562, 15 ug/mL mRNA; 80.0 at 3.75 ug/mL
SBS75715 ZFN = conditions: pair with SBS75714, K562, 15 ug/mL mRNA; 84.0 at 3.75 ug/mL
SBS75893 ZFN = conditions: pair with SBS75895, K562, 15 ug/mL mRNA; 76.6 at 3.75 ug/mL
SBS75591 ZFN = conditions: pair with SBS75592, K562, 15 ug/mL mRNA; 80.0 at 3.75 ug/mL

Sequence: AAGGAGGTGCTCCTGGAATTACTTAGCA (double strand) [SBS75606 target]
- activity (SBS75606 ZFN): 91.4 % indels

Sequence: AGGGATGGGATGACTTGGCTTTAGGTCA (double strand) [SBS75714 target]
- activity (SBS75714 ZFN): 90.7 % indels

Sequence: AGGTTGGGAGTGGGGTCTTGTTCAGGGC (double strand) [SBS75895 target]
- activity (SBS75895 ZFN): 91.3 % indels

Sequence: CTCCCCTGACCAAGGAAAATCGGGGTGG (double strand) [SBS75609 target]
- activity (SBS75609 ZFN): 91.4 % indels

Sequence: GCTAAGTAATTCCAGGAGCACCTCCTTT (double strand) [SBS75592 target]
- activity (SBS75592 ZFN): 91.2 % indels

Sequence: GGACTCAGGTGGGGGGTCTAGGGGTGAG (double strand) [SBS75715 target]
- activity (SBS75715 ZFN): 90.7 % indels

Sequence: GGGCTAGGGCTGAAGTGAGGTGAAAGGT (double strand) [SBS75893 target]
- activity (SBS75893 ZFN): 91.3 % indels

Sequence: TCGGCCATCAGAAGGGAGGGACCCTGCT (double strand) [SBS75591 target]
- activity (SBS75591 ZFN): 91.2 % indels
